Where a chain is given by its changes, count along the chain named.
B1: SARS-CoV-2 variant 1-32 (antibody, V domains shown)
VH: EVQLLESGGGLVQPGGSLRLSCAASGFTFSSYAMYWVRQAPGKGLEWVSAISGSGGSTFYADSVKGRFTISRDNSKNTLYLQMNSLRAEDTAVYYCTRPPYGDYGDYWGQGTLVTVSS
VL: QSALTQPASVSGSPGQSITISCTGTSSDVGGYNLVSWYQQHPGKAPKLMIYEGNKRPSGVSNRFSGSKSGNTASLTISGLQAEDEADYYCCSYAGSSTFPVVFGGGTKLTVL
B2: SARS-CoV-2 variant 1-41 (antibody, V domains shown)
VH: EVQLLESGGGLVQPGGSLRLSCAASGFTFSSYDMSWVRQAPGKGLEWVSVISGSGGSTYYADSVKGRFTISRDNSKNTLYLQMNSLRAEDTAVYYCAKGPLVGWYFDLWGQGTLVTVSS
VL: QSALTQPASVSGSPGQSITISCTGTSSDIGSYNLVSWYQQHPGKAPKLMIYEGTKRPSGVSNRFSGSKSGNTASLTISGLQAEDEADYYCCSYAGSRTYVFGGGTKLTVL
B3: SARS-CoV-2 variant 1-45 (antibody, V domains shown)
VH: EVQLLESGGGLVQPGGSLRLSCAASGFTFSSYAMSWVRQAPGKGLEWVSIISGSAGSTYYADSVKGRFTISRDNSKNTLYLQMNSLRAEDTAVYYCARDGYKYCLWGQGTLVTVSS
VL: B2 VL
B4: SARS-CoV-2 variant 1-29 (antibody, V domains shown)
VH: EVQLLESGGGLVQPGGSLRLSCAASGFTFSSYAMYWVRQAPGKGLEWVSAISGSAGSTYYADSVKGRFTISRDNSKNTLYLQMNSLRAEDTAVYYCARDTNDFWSGYSIFDPWGQGTLVTVSS
VL: B2 VL
B5: SARS-CoV-2 variant 1-49 (antibody, V domains shown)
VH: EVQLLESGGGLVQPGGSLRLSCAASGFTFSSYAMYWVRQAPGKGLEWVSAISGSAGSTYYADSVKGRFTISRDNSKNTLYLQMNSLRAEDTAVYYCARDTNDFWGQGTLVTVSS
VL: B2 VL
B6: SARS-CoV-2 variant 1-39 (antibody, V domains shown)
VH: B1 VH with S49T, D103Y
VL: B2 VL
B7: SARS-CoV-2 variant 1-50 (antibody, V domains shown)
VH: B5 VH with A33D, Y35S, A55G, S57T, D99G, T100P, N101L
VL: B2 VL
B8: SARS-CoV-2 variant 1-48 (antibody, V domains shown)
VH: B4 VH with Y32H, R98H, N101K, S108C
VL: B2 VL
B9: SARS-CoV-2 variant 1-46 (antibody, V domains shown)
VH: B4 VH with S30T, Y35S, A55G, R98N, N101S, W104C, S105F, S108W
VL: B2 VL
B10: SARS-CoV-2 variant 1-2 (antibody, V domains shown)
VH: EVQLLESGGGLVQPGGSLRLSCAASGFTFSSQAMSWVRQAPGKGLEWVSAISGSGGGTYYADSVKGRFTISRDNSKNTLYLQMNSLRAEDTAVYYCAKDRRFGEFDPWGQGTLVTVSS
VL: QSALTQPASVSGSPGQSITISCTGTSSGVGSYNLVSWYQQHPGKAPKLMIYEGIKRPSGVSNRFSGSKSGNTASLTISGLQAEDEADYYCCSYAGSSSFVVFGGGTKLTVL
B11: SARS-CoV-2 variant 1-43 (antibody, V domains shown)
VH: B10 VH with S49T, R100T, R101I, D106Y
VL: B2 VL
B12: SARS-CoV-2 variant 1-35 (antibody, V domains shown)
VH: EVQLLESGGGLVQPGGSLRLSCAASGFTFSNYAMSWVRQAPGKGLEWVSDISGSGGSTYYADSVKGRFTISRDNSKNTLYLQMNSLRAEDTAVYYCVKGTIPIFGVIRSAFDYWGQGTLVTVSS
VL: B10 VL with G28D, N33S, I54T, S97Y, F99Y
B13: SARS-CoV-2 variant 1-27 (antibody, V domains shown)
VH: EVQLLESGGGLVQPGGSLRLSCAASGFTFSSYAMTWVRQAPGKGLEWVSAISGSGGGTYYADSVKGRFTISRDNSKNTLYLQMNSLRAEDTAVYYCASSSSWQFDYWGQGTLVTVSS
VL: B10 VL with G28Y, S31H, I54S, K55R, S97Y, S98T, F99H, V100Y
B14: SARS-CoV-2 variant 1-30 (antibody, V domains shown)
VH: B1 VH with Y35T
VL: B10 VL with S27R, G28D, I54T, S97R, S98T, F99P
B15: SARS-CoV-2 variant 1-33 (antibody, V domains shown)
VH: B1 VH with Y35I
VL: B10 VL with G28D, V35L, G53A, I54S, S97R, S98T, F99P
B16: SARS-CoV-2 variant 1-44 (antibody, V domains shown)
VH: B10 VH with S49T, R101K
VL: B2 VL
B17: SARS-CoV-2 variant 1-4 (antibody, V domains shown)
VH: B10 VH
VL: B10 VL with G28D, S31T, I54S, K55Q
B18: SARS-CoV-2 variant 1-31 (antibody, V domains shown)
VH: B1 VH with Y35N
VL: B10 VL with G28D, S31K, I54S, K55Q, S97R, S98T, F99P
B19: SARS-CoV-2 variant 1-5 (antibody, V domains shown)
VH: B10 VH
VL: B10 VL with G53A, I54S, S97Y, S98T, V100A
B20: SARS-CoV-2 variant 1-20 (antibody, V domains shown)
VH: EVQLLESGGGLVQPGGSLRLSCAASGITFSSYAMSWVRQAPGKGLEWVSGISGSGGSTYYADSVKGRFTISRDNSKNTLYLQMNSLRAEDTAVYYCANHGSGTIFGVVIAKYYFDYWGQGTLVTVSS
VL: B10 VL with G28D, S31H, I54T
B21: SARS-CoV-2 variant 1-28 (antibody, V domains shown)
VH: B13 VH with A33G, T35S
VL: B10 VL with I54S, K55Q, S98T, F99H, V100Y
B22: SARS-CoV-2 variant 1-3 (antibody, V domains shown)
VH: B10 VH
VL: B10 VL with T25I, G28D, I54T

Columns and labels:
Assay in all cases: phage ELISA
[1] = target: T1, SARS-CoV-2 S1 (subunit 1) protein (SARS-CoV-2, UniProt P0DTC2 16-685)
T1 construct: also called biotinylated SARS-CoV-2 S1

S1-Fc = S1-Fc (SARS-CoV-2, UniProt P0DTC2 16-685)
[2] = target: T2, COVID S1 RBM Fc fusion (Antigen 2) (SARS-CoV-2, UniProt P0DTC2 437-508)
T2 construct: domain: RBM

| Binder | screening ELISA (Avg), fold over background [1] [fold over background] | specificity ELISA, fold over background (S1-Fc) [fold over background] | specificity ELISA, percent binding relative to Acro S1 (S1-Fc) [%] | specificity ELISA, fold over background [2] [fold over background] | specificity ELISA, percent binding relative to Acro S1 [2] [%] |
| --- | --- | --- | --- | --- | --- |
| B1 | 17.9 | 4 | 35.3 | 1.1 | 9.5 |
| B2 | 18.1 | – | – | 1.2 | 26.3 |
| B3 | – | – | – | 1 | 8.3 |
| B4 | 23.8 | 1 | 94 | 0.9 | 78.3 |
| B5 | – | – | – | 0.8 | 78.8 |
| B6 | – | – | – | 1.3 | 6.7 |
| B7 | – | – | – | 0.8 | 5.9 |
| B8 | – | – | – | 0.8 | 30.3 |
| B9 | – | – | – | 0.9 | 19.8 |
| B10 | 24.2 | 1.7 | 95.4 | 1.7 | 93.5 |
| B11 | – | – | – | 1 | 14.5 |
| B12 | – | – | – | 1.6 | 7.3 |
| B13 | 27.2 | 1.3 | 84.8 | 1.6 | 109 |
| B14 | 29.5 | 5.6 | 33.3 | 1.4 | 8.5 |
| B15 | 17.6 | 3 | 42.1 | 1 | 14.6 |
| B16 | – | – | – | 0.8 | 7.6 |
| B17 | 20.6 | 0.9 | 90.8 | 1.1 | 105 |
| B18 | 20.7 | 15.7 | 51.6 | 1.2 | 3.8 |
| B19 | 20.6 | 1.2 | 82.9 | 1.4 | 92 |
| B20 | – | – | – | 0.8 | 14.5 |
| B21 | 17.7 | 1.1 | 110 | 1.2 | 124 |
| B22 | 23.9 | 1.5 | 91.2 | 1.5 | 91.9 |

From patent publication US20210395344A1 (TWIST BIOSCIENCE, published 2021)
